What is called Kd is the constant that tells how readily two partners part at equilibrium. As usually defined, the koff is the rate constant with which the complex falls apart. Lower therefore signals slow dissociation. The kon is a measure of how fast the partners come together. A high value points to fast association.

These results are taken from patent publication US20260015426A1 (23ANDME, published 2026).

For test [1], the target named is T1, hu-M-IL1RAP construct, positions S21-T367 (extracellular domain of the membrane form of human IL1RAP) (human, UniProt Q9NPH3 21-367).
T1 construct: Biotinylated when captured on the Biacore chip
T1 sequence: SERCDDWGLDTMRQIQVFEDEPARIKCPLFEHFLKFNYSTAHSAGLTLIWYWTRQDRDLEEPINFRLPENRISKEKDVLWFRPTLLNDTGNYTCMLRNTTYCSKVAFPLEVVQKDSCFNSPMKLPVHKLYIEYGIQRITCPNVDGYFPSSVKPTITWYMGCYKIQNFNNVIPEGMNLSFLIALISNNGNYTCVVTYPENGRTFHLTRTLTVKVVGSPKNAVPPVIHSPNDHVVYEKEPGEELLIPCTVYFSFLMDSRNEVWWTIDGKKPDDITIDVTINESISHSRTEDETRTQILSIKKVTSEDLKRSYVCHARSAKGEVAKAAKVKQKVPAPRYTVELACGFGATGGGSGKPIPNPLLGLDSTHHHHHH
As to the kind of experiment: SPR, Fab analyte, 25 C.

For test [2], the target named is T1, hu-M-IL1RAP construct, positions …. As to the kind of experiment: phage display selection of affinity maturation libraries + NGS; enrichment of the mutation R96A (VH).
Protocol: (§1) For the first panning round, plates and phage libraries were blocked in PBS buffer containing 0.05% TWEEN® 20 and 1% BSA for either 1 hour (plates) or 30 minutes (phage libraries). Plates were washed in Wash Buffer (PBS buffer containing 0.05% TWEEN® 20) and incubated with blocked phage libraries for 2 hours with shaking. Non-specifically bound phage was removed by washing vigorously with Wash Buffer. […] Non-specific interactions were inhibited by adding 1/10th v/v 1% BSA.
(§2) For panning rounds three through five, phage libraries were incubated with blocking buffer (PBS buffer with 1% BSA in round 3 and SUPERBLOCK™ PBS buffer (Pierce) and 0.05% TWEEN® 20 in rounds 4 and 5) for 30 minutes and then incubated with decreasing concentrations of biotinylated hu-M-IL1RAP for 1 hour. Hu-M-IL1RAP-bound phage were captured on blocked neutravidin-coated plates, washed extensively with Wash Buffer, and eluted and neutralized in the same manner as in rounds 1 and 2. In the final selection round, 1000× non-biotinylated hu-M-IL1RAP was added as a competitor to increase the selection stringency.
(§3) To extract sequences from affinity maturation libraries using NGS, phagemid double stranded DNA was isolated from E. coli XL-1 cells carrying phagemids from the initial phage library (unsorted libraries) and from the second and third rounds of solution selection (sorted libraries). […]
Test [3] has the same target. As to the kind of experiment: SPR, Fab against parent Fab. On the technique in general: In SPR one partner is held on a chip, and binding of the other changes the refractive index at the surface.
The target is the same in test [4]. As to the kind of experiment: phage display selection of affinity maturation libraries + NGS; enrichment of the mutation W92I (VL).
Protocol: as §1, §2, §3
Test [5] has the same target. As to the kind of experiment: phage display selection of affinity maturation libraries + NGS; enrichment of the mutation T94I (VL).
Protocol: as §1, §2, §3
The target is the same in test [6]. As to the kind of experiment: SPR, Fab analyte, 37 C.
Protocol: Surface plasmon resonance (SPR) analysis was used to determine binding affinity for hu-M-IL1RAP of the purified Fabs containing the selected single, double, and triple mutations in either the VL or VH regions using a BIACORE™ 8K instrument. […] For kinetics measurements, 5 nM biotinylated hu-M-IL1RAP was captured at 10 μL/min to achieve ˜50 response units in the second flow cell (FC2). FC1 was kept as a reference. […] The sensorgrams were recorded and subjected to reference and buffer subtraction before data analysis with the BIACORE® 8K Evaluation Software (version 1.1.1.7442). Association rates (kₒₙ) and dissociation rates (koff) were calculated using a simple one-to-one Langmuir binding model. The equilibrium dissociation constant (KD) was calculated as the ratio of koff/kₒₙ.
The target is the same in test [7]. As to the kind of experiment: phage display selection of affinity maturation libraries + NGS; enrichment of the mutation R96D (VH).
Protocol: as §1, §2, §3
Test [8] has the same target. As to the kind of experiment: phage display selection of affinity maturation libraries + NGS; enrichment of the mutation T94V (VL).
Protocol: as §1, §2, §3
For test [9] the target is unchanged. As to the kind of experiment: phage display selection of affinity maturation libraries + NGS; enrichment of the mutation A51Y (VL).
Protocol: as §1, §2, §3
The target in test [10] is T2, human IL1RAP (hu-IL1RAP) on human cells (human, UniProt Q9NPH3 21-570).
T2 sequence: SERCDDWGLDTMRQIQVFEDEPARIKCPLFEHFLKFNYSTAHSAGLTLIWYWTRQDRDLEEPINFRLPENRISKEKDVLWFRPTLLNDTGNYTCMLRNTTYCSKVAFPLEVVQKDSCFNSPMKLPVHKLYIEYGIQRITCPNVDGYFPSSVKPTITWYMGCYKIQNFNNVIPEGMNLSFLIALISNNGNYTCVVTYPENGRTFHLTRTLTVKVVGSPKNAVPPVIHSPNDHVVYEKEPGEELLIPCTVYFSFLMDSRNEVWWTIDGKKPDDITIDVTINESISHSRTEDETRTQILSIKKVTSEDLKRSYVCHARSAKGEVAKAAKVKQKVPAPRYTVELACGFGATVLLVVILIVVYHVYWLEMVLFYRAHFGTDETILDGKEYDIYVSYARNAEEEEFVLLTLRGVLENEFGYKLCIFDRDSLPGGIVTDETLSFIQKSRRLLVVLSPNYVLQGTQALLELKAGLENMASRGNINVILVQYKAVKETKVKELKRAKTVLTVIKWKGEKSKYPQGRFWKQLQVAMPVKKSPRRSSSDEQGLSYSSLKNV
As to the kind of experiment: cell-based or functional assay.

The target of test [11] is T1, hu-M-IL1RAP construct, positions …. As to the kind of experiment: phage display selection of affinity maturation libraries + NGS; enrichment of the mutation A51D (VL).
Test [12] shares this target. As to the kind of experiment: phage display selection of affinity maturation libraries + NGS; enrichment of the mutation V51S (VH).
Protocol: as §1, §2, §3

B1: H1 Fab (VH R96A) (Fab, V domains shown)
VH: EVQLVESGGGLVQPGGSLRLSCAASGFTFSNYAMSWVRQAPGKGLEWVATVTEGGDYNYYLDDVKGRFTISRDNAKNSLYLQMNSLRAEDTAVYYCARDAWPYFFDYWGQGTLVTVSS
VL: DIQMTQSPSSLSASVGDRVTITCRASENIYSNLAWYQQKPGKSPKLLVYGAKNLADGVPSRFSGSGSGTDYTLTISSLQPEDFATYYCQHFWTTPRTFGGGTKVEIK
notes: Fab with 8xHis tag
In test [1], B1 had a Kd of 0.125 nM, a koff of 0.000218 s⁻¹ and a kon of 1.75e+06 M⁻¹ s⁻¹. Also, in test [2], the “Enrichment ratio (at the highest selection stringency)” value worked out at 4.55 ratio. In addition, in test [3], the “Fold Improvement in KD @ 25° C.” value turned out to be 2.7 fold.

B2: K12 Fab (VL W92I) (Fab, V domains shown)
VH: EVQLVESGGGLVQPGGSLRLSCAASGFTFSNYAMSWVRQAPGKGLEWVATVTEGGDYNYYLDDVKGRFTISRDNAKNSLYLQMNSLRAEDTAVYYCARDRWPYFFDYWGQGTLVTVSS
VL: DIQMTQSPSSLSASVGDRVTITCRASENIYSNLAWYQQKPGKSPKLLVYGAKNLADGVPSRFSGSGSGTDYTLTISSLQPEDFATYYCQHFITTPRTFGGGTKVEIK
notes: Fab with 8xHis tag
Regarding B2, in [1], binding was put at a Kd of 0.0411 nM, the koff came to 0.00023 s⁻¹ and the kon came out at 5.58e+06 M⁻¹ s⁻¹. Also, the “Enrichment ratio (at the highest selection stringency)” value in test [4] is 3.36 ratio. Besides, in test [3], the “Fold Improvement in KD @ 25° C.” value was found to be 8.2 fold.

B3: K14 Fab (VL T94I) (Fab, V domains shown)
VH: EVQLVESGGGLVQPGGSLRLSCAASGFTFSNYAMSWVRQAPGKGLEWVATVTEGGDYNYYLDDVKGRFTISRDNAKNSLYLQMNSLRAEDTAVYYCARDRWPYFFDYWGQGTLVTVSS
VL: DIQMTQSPSSLSASVGDRVTITCRASENIYSNLAWYQQKPGKSPKLLVYGAKNLADGVPSRFSGSGSGTDYTLTISSLQPEDFATYYCQHFWTIPRTFGGGTKVEIK
notes: Fab with 8xHis tag
Regarding B3, in test [1], the affinity, expressed as Kd, was 0.0913 nM; the koff stood at 0.000543 s⁻¹; the kon was found to be 5.95e+06 M⁻¹ s⁻¹. The “Enrichment ratio (at the highest selection stringency)” value in test [5] came out at 1.74 ratio. Also, the “Fold Improvement in KD @ 25° C.” value in test [3] came out at 3.69 fold.

B4: H2 Fab (VH R96D) (Fab, V domains shown)
VH: EVQLVESGGGLVQPGGSLRLSCAASGFTFSNYAMSWVRQAPGKGLEWVATVTEGGDYNYYLDDVKGRFTISRDNAKNSLYLQMNSLRAEDTAVYYCARDDWPYFFDYWGQGTLVTVSS
VL: DIQMTQSPSSLSASVGDRVTITCRASENIYSNLAWYQQKPGKSPKLLVYGAKNLADGVPSRFSGSGSGTDYTLTISSLQPEDFATYYCQHFWTTPRTFGGGTKVEIK
notes: Fab with 8xHis tag
In test [1], B4 had a Kd of 0.0422 nM, a koff of 0.000219 s⁻¹ and a kon of 5.19e+06 M⁻¹ s⁻¹. In addition, in test [6], binding was put at a Kd of 0.112 nM, the koff worked out at 0.000729 s⁻¹ and the kon was found to be 6.5e+06 M⁻¹ s⁻¹. The “Enrichment ratio (at the highest selection stringency)” value in [7] was found to be 4.06 ratio. In test [3], the “Fold Improvement in KD @ 25° C.” value was found to be 7.99 fold and the “Fold Improvement in KD @ 37° C.” value was found to be 2.39 fold.

B5: K15 Fab (VL T94V) (Fab, V domains shown)
VH: EVQLVESGGGLVQPGGSLRLSCAASGFTFSNYAMSWVRQAPGKGLEWVATVTEGGDYNYYLDDVKGRFTISRDNAKNSLYLQMNSLRAEDTAVYYCARDRWPYFFDYWGQGTLVTVSS
VL: DIQMTQSPSSLSASVGDRVTITCRASENIYSNLAWYQQKPGKSPKLLVYGAKNLADGVPSRFSGSGSGTDYTLTISSLQPEDFATYYCQHFWTVPRTFGGGTKVEIK
notes: Fab with 8xHis tag
Consider B5, for which, in test [1], the Kd was found to be 0.12 nM, the koff is 0.00068 s⁻¹ and the kon came out at 5.67e+06 M⁻¹ s⁻¹. For the same molecule, the “Enrichment ratio (at the highest selection stringency)” value in test [8] came to 0.987 ratio. The “Fold Improvement in KD @ 25° C.” value in test [3] was determined as 2.81 fold.

B6: K10 Fab (VL A51Y) (Fab, V domains shown)
VH: EVQLVESGGGLVQPGGSLRLSCAASGFTFSNYAMSWVRQAPGKGLEWVATVTEGGDYNYYLDDVKGRFTISRDNAKNSLYLQMNSLRAEDTAVYYCARDRWPYFFDYWGQGTLVTVSS
VL: DIQMTQSPSSLSASVGDRVTITCRASENIYSNLAWYQQKPGKSPKLLVYGYKNLADGVPSRFSGSGSGTDYTLTISSLQPEDFATYYCQHFWTTPRTFGGGTKVEIK
notes: Fab with 8xHis tag
As to B6, the “Enrichment ratio (at the highest selection stringency)” value in test [9] came out at 2.95 ratio. Also, in test [10], the “HEK-Blue, IL-1β, % inhibition at 100 nM (Fab)” value came to 100%; the “HEK-Blue, IL-1β, IC50 (Fab)” value amounted to 0.66 nM; the “HEK-Blue, IL-33, % inhibition at 100 nM (Fab)” value turned out to be 98%; the “HEK-Blue, IL-33, IC50 (Fab)” value came out at 3.26 nM. In test [10], the “HEK-Blue, IL-36α, % inhibition at 100 nM (Fab)” value worked out at 100% and the “HEK-Blue, IL-36α, IC50 (Fab)” value stood at 0.706 nM. In [1], binding was put at a Kd of 0.00855 nM, the koff came out at 5.06e-05 s⁻¹ and the kon was found to be 5.92e+06 M⁻¹ s⁻¹. In test [6], this molecule had a Kd of 0.0298 nM, a koff of 0.000153 s⁻¹ and a kon of 5.12e+06 M⁻¹ s⁻¹. In [3], the “Fold Improvement in KD @ 25° C.” value worked out at 39.4 fold and the “Fold Improvement in KD @ 37° C.” value is 8.99 fold.

B7: K9 Fab (VL A51D) (Fab, V domains shown)
VH: EVQLVESGGGLVQPGGSLRLSCAASGFTFSNYAMSWVRQAPGKGLEWVATVTEGGDYNYYLDDVKGRFTISRDNAKNSLYLQMNSLRAEDTAVYYCARDRWPYFFDYWGQGTLVTVSS
VL: DIQMTQSPSSLSASVGDRVTITCRASENIYSNLAWYQQKPGKSPKLLVYGDKNLADGVPSRFSGSGSGTDYTLTISSLQPEDFATYYCQHFWTTPRTFGGGTKVEIK
notes: Fab with 8xHis tag
Take B7: the “Enrichment ratio (at the highest selection stringency)” value in test [11] is 2.84 ratio. Moreover, in test [1], the Kd was 0.021 nM, the koff came out at 0.000103 s⁻¹ and the kon turned out to be 4.93e+06 M⁻¹ s⁻¹. Also, the “Fold Improvement in KD @ 25° C.” value in [3] was 16.1 fold.

B8: H3 Fab (VH V51S) (Fab, V domains shown)
VH: EVQLVESGGGLVQPGGSLRLSCAASGFTFSNYAMSWVRQAPGKGLEWVATSTEGGDYNYYLDDVKGRFTISRDNAKNSLYLQMNSLRAEDTAVYYCARDRWPYFFDYWGQGTLVTVSS
VL: DIQMTQSPSSLSASVGDRVTITCRASENIYSNLAWYQQKPGKSPKLLVYGAKNLADGVPSRFSGSGSGTDYTLTISSLQPEDFATYYCQHFWTTPRTFGGGTKVEIK
notes: Fab with 8xHis tag
In test [1], B8 came in with a Kd of 0.0396 nM, a koff of 0.000208 s⁻¹ and a kon of 5.26e+06 M⁻¹ s⁻¹. In test [6], this molecule registered a Kd of 0.125 nM, a koff of 0.000602 s⁻¹ and a kon of 4.82e+06 M⁻¹ s⁻¹. Moreover, in test [12], the “Enrichment ratio (at the highest selection stringency)” value is 3.42 ratio. Moreover, in test [3], the “Fold Improvement in KD @ 25° C.” value was 8.51 fold and the “Fold Improvement in KD @ 37° C.” value was determined as 2.14 fold.
